Results from IntAct's records for PubMed 24075010.

B1: Myocyte-specific enhancer factor 2 (Drosophila melanogaster (Fruit fly)), P40791 (parent)
chain: MGRKKIQISRITDERNRQVTFNKRKFGVMKKAYELSVLCDCEIALIIFSSSNKLYQYASTDMDRVLLKYTEYNEPHESLTNKNIIEKENKNGVMSPDSPEAETDYTLTPRTEAKYNKIDEEFQNMMQRNQMAIGGAGAPRQLPNSSYTLPVSVPVPGSYGDNLLQASPQMSHTNISPRPSSSETDSGGMSLIIYPSGSMLEMSNGYPHSHSPLVGSPSPGPSPGIAHHLSIKQQSPGSQNGRASNLRVVIPPTIAPIPPNMSAPDDVGYADQRQSQTSLNTPVVTLQTPIPALTSYSFGAQDFSSSGVMNSADIMSLNTWHQGLVPHSSLSHLAVSNSTPPPATSPVSIKVKAEPQSPPRDLSASGHQQNSNGSTGSGGSSSSTSSNASGGAGGGGAVSAANVITHLNNVSVLAGGPSGQGGGGGGGGSNGNVEQATNLSVLSHAQQHHLGMPNSRPSSTGHITPTPGHDKYEGYPYRALMGHNPRWNLNFAGAPSSDQDVRLAAVAVQQQQQQPHQQQQLGDYDAPNHKRPRISGGWGT
partner: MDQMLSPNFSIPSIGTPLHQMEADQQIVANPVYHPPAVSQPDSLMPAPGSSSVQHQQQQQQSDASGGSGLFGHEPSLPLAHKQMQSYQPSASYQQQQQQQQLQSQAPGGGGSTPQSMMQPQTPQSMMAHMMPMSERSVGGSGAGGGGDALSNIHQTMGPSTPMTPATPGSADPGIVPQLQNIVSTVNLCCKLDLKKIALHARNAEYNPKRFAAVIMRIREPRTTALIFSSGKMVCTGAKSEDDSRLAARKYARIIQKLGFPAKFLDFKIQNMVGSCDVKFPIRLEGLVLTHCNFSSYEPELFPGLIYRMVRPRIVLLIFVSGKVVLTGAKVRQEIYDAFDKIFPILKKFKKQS

Variants of: B1
Conditions: with tbp_drome Tbp

effect of a mutation on the interaction | Variant
increasing interaction strength | T20A
decreasing interaction strength | T20E
